# Results published in paper PMC9287160 (2022).
# T1: recombinant human αMβ2 αI domain (human)
# T1 chain: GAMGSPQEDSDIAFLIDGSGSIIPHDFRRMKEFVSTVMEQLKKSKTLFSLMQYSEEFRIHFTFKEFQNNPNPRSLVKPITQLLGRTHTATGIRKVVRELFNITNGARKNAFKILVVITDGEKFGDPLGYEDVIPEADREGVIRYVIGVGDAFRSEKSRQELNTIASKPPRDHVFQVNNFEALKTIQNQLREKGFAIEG
# B1: biotinylated avi-tagged hCD11bNb1 (VHH)
# VHH: QVQLVETGGGLVQAGGSLRLSCAASGNINSFNAMGWFRQAPGKQRELVAAITFGGRTNYADSVKGRFTISRDNTKGSVYLQMNSLKPEDTAVYYCAASENNLLTGVWHYWGRGTQVTVSS
# modifications: biotin
# What was measured:
# Experiment in all cases: BLI
# [1] = molecular target: T2, human integrin αMβ2 headpiece fragment (human, UniProt P11215 17-1152; P05107 23-482)
# [2] = molecular target: T1, recombinant human αMβ2 αI domain
# [3] = molecular target: T2, human integrin αMβ2 headpiece fragment; remark: listed apart in the source
# [4] = molecular target: T1, recombinant human αMβ2 αI domain
binder,measurement,setting,value
B1,Kd,[1],0.85 nM
same,Kd,[2],6.6 nM
same,koff,[3],0.00047 s⁻¹
same,koff,[4],0.0032 s⁻¹
